For 1 molecule, percent of particles with no Fab bound and percent of particles with one Fab bound results are on record in paper doi:10.1101/827477.

The target in the experiment is BG505_mut123_N241 SOSIP (HIV-1 (subtype A, BG505)) (UniProt Q2N0S6). The experiment can be described thus: negative-stain EM.

B1: 13B Fab (Fab, V domains shown)
VH: LEESGGGLVQPEGSLTLTCKASGFDFSDYHVQWVRQSPGKGLEFIGGIAYTGNIYYASWAKGRFTISKTSSTTVTLQMTTLTAADTATYFCARAYGYASAPYAQYFNLWGPGTLVTVSS
VL: DIVMTQTPASVSEPVGGTVTINCQASQSRGNNYLSWYQQKPGQSPSLLIYRTSTLASGVPSRFKGSGSGTQFTLTISDLECADAATYYCLYGYYSSRNPDFAFGGGTEVVVK
Molecule B1 gave a percent of particles with no Fab bound of 57% and a percent of particles with one Fab bound of 43%.
